T1: Mcm2 (Saccharomyces cerevisiae, UniProt P29469 1-868)
T1 construct: Mcm2, S. cerevisiae; Subunit of m7, written alone for the contacts seen in OC1M^Mcm5RA; also called Mcm2 subunit of MCM; source: S. cerevisiae strain yGC226, purified as a subunit of MCM-Cdt1
T1 sequence: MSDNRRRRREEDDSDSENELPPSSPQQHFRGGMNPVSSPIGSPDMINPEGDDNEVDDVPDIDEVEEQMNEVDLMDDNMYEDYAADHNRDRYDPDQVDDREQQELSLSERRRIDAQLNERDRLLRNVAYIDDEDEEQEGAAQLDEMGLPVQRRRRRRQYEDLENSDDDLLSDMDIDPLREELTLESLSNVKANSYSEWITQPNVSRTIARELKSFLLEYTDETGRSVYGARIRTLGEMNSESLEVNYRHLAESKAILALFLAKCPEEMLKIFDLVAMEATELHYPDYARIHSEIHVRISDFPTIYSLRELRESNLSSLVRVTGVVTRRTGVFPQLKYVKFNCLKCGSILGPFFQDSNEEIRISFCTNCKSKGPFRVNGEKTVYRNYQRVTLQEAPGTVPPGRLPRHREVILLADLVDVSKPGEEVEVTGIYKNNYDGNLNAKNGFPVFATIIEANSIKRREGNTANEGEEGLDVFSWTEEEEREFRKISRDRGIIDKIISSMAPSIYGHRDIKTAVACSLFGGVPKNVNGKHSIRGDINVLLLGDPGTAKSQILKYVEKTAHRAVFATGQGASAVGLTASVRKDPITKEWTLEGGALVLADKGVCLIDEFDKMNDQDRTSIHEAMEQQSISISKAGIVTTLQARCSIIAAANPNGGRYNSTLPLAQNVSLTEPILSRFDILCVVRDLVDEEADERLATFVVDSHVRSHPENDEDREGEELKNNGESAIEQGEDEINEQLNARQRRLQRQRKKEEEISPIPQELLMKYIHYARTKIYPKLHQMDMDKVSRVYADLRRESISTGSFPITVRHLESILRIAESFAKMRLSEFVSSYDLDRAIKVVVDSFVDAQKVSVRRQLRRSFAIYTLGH

B1: Mcm5 R549A (natural protein, Saccharomyces cerevisiae)
chain: MSFDRPEIYSAPVLQGESPNDDDNTEIIKSFKNFILEFRLDSQFIYRDQLRNNILVKNYSLTVNMEHLIGYNEDIYKKLSDEPSDIIPLFETAITQVAKRISILSRAQSANNNDKDPENTSMDTDSLLLNSLPTFQLILNSNANQIPLRDLDSEHVSKIVRLSGIIISTSVLSSRATYLSIMCRNCRHTTSITINNFNSITGNTVSLPRSCLSTIESESSMANESNIGDESTKKNCGPDPYIIIHESSKFIDQQFLKLQEIPELVPVGEMPRNLTMTCDRYLTNKVIPGTRVTIVGIYSIYNSKNGAGSGRSGGGNGGSGVAIRTPYIKILGIQSDVETSSIWNSVTMFTEEEEEEFLQLSRNPKLYEILTNSIAPSIFGNEDIKKAIVCLLMGGSKKILPDGMRLRGDINVLLLGDPGTAKSQLLKFVEKVSPIAVYTSGKGSSAAGLTASVQRDPMTREFYLEGGAMVLADGGVVCIDEFDKMRDEDRVAIHEAMEQQTISIAKAGITTVLNSRTSVLAAANPIYGRYDDLKSPGDNIDFQTTILSAFDMIFIVKDDHNEERDISIANHVINIHTGNANAMQNQQEENGSEISIEKMKRYITYCRLKCAPRLSPQAAEKLSSNFVTIRKQLLINELESTERSSIPITIRQLEAIIRITESLAKLELSPIAQERHVDEAIRLFQASTMDAASQDPIGGLNQASGTSLSEIRRFEQELKRRLPIGWSTSYQTLRREFVDTHRFSQLALDKALYALEKHETIQLRHQGQNIYRSGV
notes: Mcm5, S. cerevisiae; Subunit of m7, written alone for the contacts seen in OC1M^Mcm5RA; also called Mcm5RA; source: S. cerevisiae strain yGC226, purified as a subunit of MCM-Cdt1
B2: Orc3 (natural protein, Saccharomyces cerevisiae)
chain: MSDLNQSKKMNVSEFADAQRSHYTVYPSLPQSNKNDKHIPFVKLLSGKESEVNVEKRWELYHQLHSHFHDQVDHIIDNIEADLKAEISDLLYSETTQKRRCFNTIFLLGSDSTTKIELKDESSRYNVLIELTPKESPNVRMMLRRSMYKLYSAADAEEHPTIKYEDINDEDGDFTEQNNDVSYDLSLVENFKRLFGKDLAMVFNFKDVDSINFNTLDNFIILLKSAFKYDHVKISLIFNINTNLSNIEKNLRQSTIRLLKRNYHKLDVSSNKGFKYGNQIFQSFLDTVDGKLNLSDRFVEFILSKMANNTNHNLQLLTKMLDYSLMSYFFQNAFSVFIDPVNVDFLNDDYLKILSRCPTFMFFVEGLIKQHAPADEILSLLTNKNRGLEEFFVEFLVRENPINGHAKFVARFLEEELNITNFNLIELYHNLLIGKLDSYLDRWSACKEYKDRLHFEPIDTIFQELFTLDNRSGLLTQSIFPSYKSNIEDNLLSWEQVLPSLDKENYDTLSGDLDKIMAPVLGQLFKLYREANMTINIYDFYIAFRETLPKEEILNFIRKDPSNTKLLELAETPDAFDKVALILFMQAIFAFENMGLIKFQSTKSYDLVEKCVWRGI
notes: Orc3, S. cerevisiae; Subunit of m1, written alone for the contacts seen in the structures; also called Orc3 subunit of ORC; source: S. cerevisiae strain ySD-ORC, purified as a subunit of ORC

Assay [1] concerns the target T1, Mcm2. Kind of assay: cryo-EM structure; OC1M^Mcm5RA: 30 nM MH-ARS1-MH DNA, 60 nM ORC, 90 nM Cdc6, 60 nM MCM-Cdt1 (Mcm5 R549A), 2 mM ATP; same buffer; 30 °C, 30 min; conformer 1 at 3.7 Å, conformer 2 at 3.4 Å (Orc1 ATPase domain seen only in conformer 1). The following applies: both partners purified.
Assay [2] concerns the target B1. The description is as above. As to conditions: both partners purified.

For the molecule B1, the binding result in assay [1] is reported as “binds”.
B2: the binding result in assay [2] was “binds”.

(Values after article PMC11748629, “Unidirectional MCM translocation away from ORC drives origin licensing” (Nature Communications, 2025).)
